The source of these data is publication PMC5686127, “Accessibility of the histone H3 tail in the nucleosome for binding of paired readers” (Nature Communications, 2017).

For one assay, the target named is T1, CHD4 PHD2 (443–498) (human, UniProt Q14839 443-498).
T1 construct: CHD4, human, second PHD finger, aa 443-498; Cloned into pGex6p1; also called second PHD finger of CHD4; source: E. coli BL21 DE3 pLysS, purified (glutathione Sepharose 4B, GST cleaved with Prescission protease)
Put plainly: other fluorescence titration; intrinsic tryptophan fluorescence; H3 (1-12) peptide added to 0.5-1 uM CHD4 PHD construct; 25 °C, pH 7.5, 75 mM NaCl, 3 mM DTT; apparent. As to conditions: both partners purified.

In a further assay the target is T2, CHD4 PHD1 (aa 362–417) (human, UniProt Q14839 362-417).
T2 construct: CHD4, human, first PHD finger, aa 362-417; Cloned into pGex6p1; also called first PHD finger of CHD4; source: E. coli BL21 DE3 pLysS, purified (glutathione Sepharose 4B, GST cleaved with Prescission protease)
The assay is described as above. As to conditions: both partners purified.

T1 sequence (Q14839 443-498): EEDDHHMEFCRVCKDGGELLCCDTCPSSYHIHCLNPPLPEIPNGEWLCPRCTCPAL
T2 sequence (Q14839 362-417): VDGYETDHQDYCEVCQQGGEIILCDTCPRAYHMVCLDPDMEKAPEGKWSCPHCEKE

B1: histone H3 peptide (aa 1–12) (peptide, UniProt P68431 2-13, looked up)
peptide: ARTKQTARKSTG
notes: histone H3, aa 1-12, unmodified; also called H3 (1–12) peptide; histone peptide; source: synthetic peptide (University of Colorado Denver Peptide Core Facility)
On to B1, for which the values for the Kd with CHD4 PHD2 (443–498) and in the assay with CHD4 PHD1 (aa 362–417) were 430 nM and 4000 nM, respectively.
